{"source": "patent US20040191883A1", "about": "(ULTIZYME INTERNATIONAL, published 2004)", "proteins": {"B1": {"name": "modified water-soluble PQQGDH Ser415Cys (Acinetobacter calcoaceticus) (enzyme)", "chain": "DVPLTPSQFAKAKSENFDKKVILSNLNKPHALLWGPDNQIWLTERATGKILRVNPESGSVKTVFQVPEIVNDADGQNGLLGFAFHPDFKNNPYIYISGTFKNPKSTDKELPNQTIIRRYTYNKSTDTLEKPVDLLAGLPSSKDHQSGRLVIGPDQKIYYTIGDQGRNQLAYLFLPNQAQHTPTQQELNGKDYHTYMGKVLRLNLDGSIPKDNPSFNGVVSHIYTLGHRNPQGLAFTPNGKLLQSEQGPNSDDEINLIVKGGNYGWPNVAGYKDDSGYAYANYSAAANKSIKDLAQNGVKVAAGVPVTKESEWTGKNFVPPLKTLYTVQDTYNYNDPTCGEMTYICWPTVAPSSAYVYKGGKKAITGWENTLLVPSLKRGVIFRIKLDPTYCTTYDDAVPMFKSNNRYRDVIASPDGNVLYVLTDTAGNVQKDDGSVTNTLENPGSLIKFTYKAK", "modifications": "Cys415 of each subunit joined in an inter-subunit disulfide bond", "notes": "also called modified enzyme Ser415Cys; Ser4l5Cys"}}, "target": "the molecule itself", "assay": "SDS-PAGE without mercaptoethanol, subunit-subunit disulfide-linked homodimer", "data": [{"protein": "B1", "values": [{"measurement": "binding result", "value": "binds"}]}]}
